In the supplement of paper PMC10126150:
± gives the standard deviation of the averaged measurements.

Tested on: ATP
Test: switch fluorescence ratio, 500 uM ATP over buffer (Cy3 cluster intensity, sum of 5 cycles each) (fold (ratio)); higher = stronger signal-on switching upon ATP binding; sequences stand for … in TCGTCGGCAGCGTCAGATGTGTATAAGAGACAGTTTTTTTTTTTTTTTTTTTTTTTTT…TC
Settings: aptamer strand: ATP DNA aptamer (quencher-CACCTGGGGGAGTATTGCGGAGGAAGG + anchor), 100 nM annealed; ATP concentration: 500 uM
Summary of the method: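 Cy3-labelled switching-strand clusters on a modified Illumina MiSeq flow-cell were annealed to 100 nM quencher-labelled ATP aptamer and imaged first in selection buffer, then after 15 min with 500 uM ATP at 22 °C. NaOH stripping and re-annealing separated each of five buffer/ATP cycles, and clusters outside 100-1000 RFU were excluded. The fluorescence ratio sums target-cycle Cy3 intensity over buffer-cycle Cy3 intensity per cluster and averages it per switch-domain sequence.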
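Also: ATP exposure 15 min at 22 °C before imaging.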

| Sequence | switch fluorescence ratio |
| --- | --- |
| TTGTGGGGGA | 1.02 ± 0.046 |
| TTGTGGTACG | 0.981 ± 0.041 |
| TTGTGGTGTT | 0.986 ± 0.023 |
| TTGTGTAGGG | 1.01 ± 0.017 |
| TTGTGTAGTC | 1.005 ± 0.0091 |
| TTGTGTC | 1.06 ± 0.023 |
| TTGTGTCTGC | 0.999 ± 0.011 |
| TTGTGTGGTG | 0.98 ± 0.011 |
| TTGTGTGTTT | 0.989 ± 0.024 |
| TTGTGTTTTC | 0.9971 ± 0.006 |
| TTGTTA | 0.964 ± 0.044 |
| TTGTTAAATA | 0.98 ± 0.011 |
| TTGTTAAATT | 0.98 ± 0.018 |
| TTGTTAGAAT | 1.038 ± 0.0047 |
| TTGTTAGCCC | 1.026 ± 0.0026 |
| TTGTTAGCCT | 1.05 ± 0.019 |
| TTGTTAGGGC | 1.07 ± 0.017 |
| TTGTTAGGGG | 0.986 ± 0.019 |
| TTGTTATTAG | 1.03 ± 0.047 |
| TTGTTATTTT | 1 ± 0.03 |
| TTGTTCAAGT | 0.998 ± 0.043 |
| TTGTTCAGGG | 0.99 ± 0.013 |
| TTGTTCGAGG | 0.988 ± 0.026 |
| TTGTTCGATG | 0.99 ± 0.025 |
| TTGTTCGATT | 1 ± 0.034 |

| Sequence | switch fluorescence ratio |
| --- | --- |
| TTGTTCGGGA | 1.016 ± 0.0094 |
| TTGTTCGGGG | 1.03 ± 0.056 |
| TTGTTCGGTA | 1.02 ± 0.016 |
| TTGTTCGTAG | 0.981 ± 0.034 |
| TTGTTGAGAA | 0.995 ± 0.056 |
| TTGTTGAGAT | 1.02 ± 0.035 |
| TTGTTGAGGG | 1.014 ± 0.0042 |
| TTGTTGCTTT | 1.02 ± 0.03 |
| TTGTTGGCGA | 1.04 ± 0.023 |
| TTGTTGTTAG | 1.0094 ± 0.00094 |
| TTGTTGTTGG | 1.01 ± 0.032 |
| TTGTTGTTTT | 0.995 ± 0.035 |
| TTGTTTAGGT | 1 ± 0.03 |
| TTGTTTATTC | 1.02 ± 0.071 |
| TTGTTTGTAA | 1.04 ± 0.018 |
| TTGTTTGTCC | 1.03 ± 0.058 |
| TTGTTTGTGT | 1.02 ± 0.03 |
| TTGTTTGTTC | 1.01 ± 0.034 |
| TTGTTTTATG | 0.998 ± 0.022 |
| TTGTTTTTGT | 1.03 ± 0.032 |
| TTGTTTTTT | 1.03 ± 0.018 |
| TTGTTTTTTT | 1 ± 0.05 |
| TTTAAAAAAA | 1.02 ± 0.027 |
| TTTAAAAAAT | 1.02 ± 0.035 |
| TTTAAAAGA | 1 ± 0.02 |

| Sequence | switch fluorescence ratio |
| --- | --- |
| TTTAAACCTT | 1.89 ± 1.2 |
| TTTAAACGGA | 1.05 ± 0.081 |
| TTTAAAGACC | 0.993 ± 0.022 |
| TTTAAAGAGT | 0.972 ± 0.022 |
| TTTAAAGGGT | 1.01 ± 0.031 |
| TTTAAATAAC | 1.02 ± 0.029 |
| TTTAAATCCT | 1.09 ± 0.013 |
| TTTAAATTCG | 1.01 ± 0.014 |
| TTTAAATTTA | 1.01 ± 0.028 |
| TTTAACCCCC | 1.17 ± 0.24 |
| TTTAACCGTA | 1.02 ± 0.023 |
| TTTAACGCAT | 1.24 ± 0.12 |
| TTTAACTGA | 1.04 ± 0.044 |
| TTTAACTTAG | 1.016 ± 0.0032 |
| TTTAAGAAGT | 1 ± 0.027 |
| TTTAAGAGTG | 0.992 ± 0.0031 |
| TTTAAGCAAG | 1.062 ± 0.0077 |
| TTTAAGGCGG | 0.989 ± 0.044 |
| TTTAAGGGTA | 0.994 ± 0.023 |
| TTTAAGGGTT | 1.02 ± 0.054 |
| TTTAAGGTCG | 1.03 ± 0.082 |
| TTTAAGGTGG | 1.015 ± 0.0046 |
| TTTAAGTCT | 0.984 ± 0.095 |
| TTTAAGTGGT | 0.998 ± 0.018 |
| TTTAATACTT | 1.03 ± 0.0052 |

| Sequence | switch fluorescence ratio |
| --- | --- |
| TTTAATAGGG | 0.995 ± 0.036 |
| TTTAATCGAG | 1.04 ± 0.037 |
| TTTAATGAAC | 1 ± 0.074 |
| TTTAATGAGT | 1.02 ± 0.024 |
| TTTAATGCAA | 1.05 ± 0.033 |
| TTTAATTAAG | 0.985 ± 0.055 |
| TTTAATTAAT | 0.983 ± 0.023 |
| TTTAATTATT | 1.02 ± 0.0053 |
| TTTAATTCTT | 1 ± 0.012 |
| TTTAATTGCC | 0.993 ± 0.081 |
| TTTAATTGGC | 1.17 ± 0.19 |
| TTTAATTGGT | 1.02 ± 0.021 |
| TTTAATTGTT | 0.978 ± 0.034 |
| TTTAATTTAG | 1.02 ± 0.024 |
| TTTACAAGGT | 1.03 ± 0.014 |
| TTTACAATCG | 0.9899 ± 0.0098 |
| TTTACATAAG | 1 ± 0.043 |
| TTTACCACCT | 1.27 ± 0.096 |
| TTTACCCTCC | 1.21 ± 0.13 |
| TTTACCGCTA | 1.94 ± 0.58 |
| TTTACCTAGA | 0.997 ± 0.025 |
| TTTACCTGAG | 1.37 ± 0.025 |
| TTTACCTTGC | 2.03 ± 0.19 |
| TTTACGAAAA | 1.12 ± 0.046 |
| TTTACGATTG | 1.03 ± 0.029 |
